Results on 94 variants are retold here after the supplement of paper PMC10567573.

To fix the notation:
B1: CCDC6 (parent)
chain: ASVTIQARAEQEEEFISNTLFKKI
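Further: lentivirally expressed fusions sorted by FACS into six bins by GFP to DsRed ratio, PSI derived from sequencing read proportions per bin multiplied by bin number.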

The variants in the data set derive from B1. As to the kind of experiment: protein stability index of a GFP-peptide fusion (GPS, HEK-293T) (PSI 1-6); higher = more stable. To be noted: c terminus: a fixed tail appended.
Consider ASVTIQARAEQEEEFISQTLFKKI [N18Q], for which the protein stability index came out at 3.42.
For ASVTIQARAEQEEEFISMTLFKKI [N18M] the value was 2.34; for ASVTIQARAEQEEEFISKTLFKKI [N18K], 3.87.
As to ASVTIQARAEQEEEFISGTLFKKI [N18G], the protein stability index stood at 3.6.
Regarding ASVTIQARAEQEEEFISFTLFKKI [N18F], the protein stability index was determined as 2.27.
The result for ASVTIQARAEQEEEFISDTLFKKI [N18D] reads 4.34; that for ASVTIQARAEQEEEFISATLFKKI [N18A], 3.27.
As for ASVTIQARAEQEEEFISSTLFKKI [N18S], the protein stability index was 3.54.
For the variant ASVTIQARAEQEEEFISPTLFKKI [N18P], the protein stability index stood at 3.96.
On to ASVTIQARAEQEEEFISTTLFKKI [N18T], for which the protein stability index came out at 3.75.
For ASVTIQARAEQEEEFISLTLFKKI [N18L] the value was 2.56; for ASVTIQARAEQEEEFISYTLFKKI [N18Y], 2.07.
The result for ASVTIQARAEQEEEFISHTLFKKI [N18H] reads 3.41; that for ASVTIQARAEQEEEFISWTLFKKI [N18W], 2.43; that for ASVTIQARAEQEEEFISRTLFKKI [N18R], 3.07.
For ASVTIQARAEQEEEFISVTLFKKI [N18V] the value was 1.5; for ASVTIQARAEQEEEFISETLFKKI [N18E], 4.09; for ASVTIQARAEQEEEFISCTLFKKI [N18C], 2.79.
As for ASVTIQARAEQEEEFIRNTLFKKI [S17R], the protein stability index stood at 3.26.
For the variant ASVTIQARAEQEEEFICNTLFKKI [S17C], the protein stability index was determined as 2.8.
Consider ASVTIQARAEQEEEFIFNTLFKKI [S17F], for which the protein stability index came out at 2.98.
As for ASVTIQARAEQEEEFIMNTLFKKI [S17M], the protein stability index was 3.06.
Turning to ASVTIQARAEQEEEFIPNTLFKKI [S17P], the protein stability index stood at 3.92.
The result for ASVTIQARAEQEEEFIHNTLFKKI [S17H] reads 3.58; that for ASVTIQARAEQEEEFIQNTLFKKI [S17Q], 3.77; that for ASVTIQARAEQEEEFIGNTLFKKI [S17G], 3.5.
As for ASVTIQARAEQEEEFIDNTLFKKI [S17D], the protein stability index is 4.38.
As to ASVTIQARAEQEEEFITNTLFKKI [S17T], the protein stability index is 4.27.
The result for ASVTIQARAEQEEEFIVNTLFKKI [S17V] reads 3.18; that for ASVTIQARAEQEEEFIENTLFKKI [S17E], 3.9.
Regarding ASVTIQARAEQEEEFIKNTLFKKI [S17K], the protein stability index worked out at 4.03.
The result for ASVTIQARAEQEEEFINNTLFKKI [S17N] reads 3.59; that for ASVTIQARAEQEEEFIANTLFKKI [S17A], 3.64; that for ASVTIQARAEQEEEFIYNTLFKKI [S17Y], 2.9.
As to ASVTIQARAEQEEEFILNTLFKKI [S17L], the protein stability index came to 3.35.
As for ASVTIQARAEQEEEFIINTLFKKI [S17I], the protein stability index came out at 2.85.
Consider ASVTIQARAEQEEEFIWNTLFKKI [S17W], for which the protein stability index is 2.54.
Consider ASVTIQARAEQEEEFISNQLFKKI [T19Q], for which the protein stability index is 3.86.
For ASVTIQARAEQEEEFISNELFKKI [T19E] the value was 3.81; for ASVTIQARAEQEEEFISNPLFKKI [T19P], 4; for ASVTIQARAEQEEEFISNYLFKKI [T19Y], 2.96.
The result for ASVTIQARAEQEEEFISNWLFKKI [T19W] reads 3.13.
The result for ASVTIQARAEQEEEFISNHLFKKI [T19H] reads 3.36; that for ASVTIQARAEQEEEFISNSLFKKI [T19S], 3.47.
Consider ASVTIQARAEQEEEFISNMLFKKI [T19M], for which the protein stability index was found to be 3.03.
The result for ASVTIQARAEQEEEFISNNLFKKI [T19N] reads 3.12; that for ASVTIQARAEQEEEFISNALFKKI [T19A], 3.49.
Take ASVTIQARAEQEEEFISNKLFKKI [T19K]: the protein stability index came out at 3.72.
Regarding ASVTIQARAEQEEEFISNILFKKI [T19I], the protein stability index was determined as 2.94.
Consider ASVTIQARAEQEEEFISNRLFKKI [T19R], for which the protein stability index stood at 3.84.
The result for ASVTIQARAEQEEEFISNDLFKKI [T19D] reads 3.77.
For ASVTIQARAEQEEEFISNFLFKKI [T19F] the value was 2.72.
The result for ASVTIQARAEQEEEFISNVLFKKI [T19V] reads 3.21; that for ASVTIQARAEQEEEFISNLLFKKI [T19L], 2.82; that for ASVTIQARAEQEEEFISNGLFKKI [T19G], 4.04.
For the variant ASVTIQARAEQEEEFISNCLFKKI [T19C], the protein stability index was 3.25.
For the variant ASVTIQARAEQEEKFISNTLFKKI [E14K], the protein stability index stood at 3.2.
The result for ASVTIQARAEQEEDFISNTLFKKI [E14D] reads 3.31.
With ASVTIQARAEQEECFISNTLFKKI [E14C], the protein stability index is 2.08.
On to ASVTIQARAEQEELFISNTLFKKI [E14L], for which the protein stability index was determined as 1.89.
In the case of ASVTIQARAEQEEHFISNTLFKKI [E14H], the protein stability index was determined as 2.7.
In the case of ASVTIQARAEQEEPFISNTLFKKI [E14P], the protein stability index is 3.01.
As to ASVTIQARAEQEEFFISNTLFKKI [E14F], the protein stability index was 1.87.
For ASVTIQARAEQEENFISNTLFKKI [E14N] the value was 2.95.
The result for ASVTIQARAEQEEQFISNTLFKKI [E14Q] reads 2.99; that for ASVTIQARAEQEEMFISNTLFKKI [E14M], 2.99; that for ASVTIQARAEQEEGFISNTLFKKI [E14G], 3.02.
ASVTIQARAEQEEAFISNTLFKKI [E14A]: the protein stability index is 3.13.
The result for ASVTIQARAEQEEYFISNTLFKKI [E14Y] reads 2.31; that for ASVTIQARAEQEESFISNTLFKKI [E14S], 2.79; that for ASVTIQARAEQEEWFISNTLFKKI [E14W], 1.81.
For ASVTIQARAEQEEIFISNTLFKKI [E14I], the protein stability index came out at 2.22.
For ASVTIQARAEQEEVFISNTLFKKI [E14V] the value was 2.7; for ASVTIQARAEQEERFISNTLFKKI [E14R], 2.52; for ASVTIQARAEQEETFISNTLFKKI [E14T], 2.87.
The result for ASVTIQARAEQEEEFSSNTLFKKI [I16S] reads 4.25.
Turning to ASVTIQARAEQEEEFCSNTLFKKI [I16C], the protein stability index was determined as 4.11.
On to ASVTIQARAEQEEEFPSNTLFKKI [I16P], for which the protein stability index was determined as 4.35.
As to ASVTIQARAEQEEEFMSNTLFKKI [I16M], the protein stability index came out at 3.82.
For ASVTIQARAEQEEEFASNTLFKKI [I16A] the value was 3.84; for ASVTIQARAEQEEEFTSNTLFKKI [I16T], 3.95; for ASVTIQARAEQEEEFGSNTLFKKI [I16G], 4.43.
As for ASVTIQARAEQEEEFFSNTLFKKI [I16F], the protein stability index was 3.49.
For ASVTIQARAEQEEEFHSNTLFKKI [I16H] the value was 4.28; for ASVTIQARAEQEEEFVSNTLFKKI [I16V], 4.05; for ASVTIQARAEQEEEFDSNTLFKKI [I16D], 4.34.
In the case of ASVTIQARAEQEEEFRSNTLFKKI [I16R], the protein stability index was found to be 3.92.
Regarding ASVTIQARAEQEEEFESNTLFKKI [I16E], the protein stability index stood at 4.53.
ASVTIQARAEQEEEFKSNTLFKKI [I16K]: the protein stability index is 4.53.
Take ASVTIQARAEQEEEFYSNTLFKKI [I16Y]: the protein stability index stood at 3.42.
With ASVTIQARAEQEEEFNSNTLFKKI [I16N], the protein stability index was 4.57.
The result for ASVTIQARAEQEEEFLSNTLFKKI [I16L] reads 3.94; that for ASVTIQARAEQEEEFQSNTLFKKI [I16Q], 4.66.
As to ASVTIQARAEQEEEFWSNTLFKKI [I16W], the protein stability index came out at 2.92.
